The results in this text go back to patent publication US20220033484A1 (FAPON BIOTECH, published 2022).

Positions count from the first letter of the chain named.

The assay deals with T1, cTnI quality control product recombinant protein (human, UniProt P19429 2-210, limits assumed).
T1 construct: treated as the same molecule; also called cTnI antigen; cardiac troponin I
Nature of the assay: AMC sensor, antibody immobilised, cTnI in solution. The protocol: Operating process: it is equilibrated in Buffer 1 (PBST) for 60 s, the antibody is immobilized in an antibody solution for 300 s, incubated in Buffer 2 (PBST) for 180 s, bound in antigen solution for 420 s, dissociated in the Buffer 2 for 1200 s, 10 mM of GLY solution with pH 1.69 and Buffer 3 are used for sensor regeneration, and data is output. KD represents an equilibrium dissociation constant, namely the affinity; Kon represents a binding rate; and Kd is represents a dissociation rate.

T1 sequence (P19429 2-210 limits assumed): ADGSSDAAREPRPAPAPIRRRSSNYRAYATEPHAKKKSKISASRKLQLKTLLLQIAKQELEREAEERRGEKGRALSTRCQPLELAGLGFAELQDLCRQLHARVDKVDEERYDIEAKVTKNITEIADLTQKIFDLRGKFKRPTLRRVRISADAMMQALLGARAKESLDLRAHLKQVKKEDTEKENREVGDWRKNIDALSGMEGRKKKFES

B1: WT 1-51 (antibody, V domains shown)
VH: EVQLQQSGPELVKPGASVKMSCKASGYSFTIYVVHWVKQKPGQGLEWIGYIQPYIDGTRYNEKFKGKATLTVDKSSSTAFMELSSLTSEDSAVYYCARTGYGQYGLAWLAYWGQGTLVTVSA
VL: QAVVIQESALTTSPGETVTLTCRSSSGAATTSQYANWVQEKPDHLFTGLIGGSNNRAPGVPARFSGSLIGDKAALTITGAQTEDEAIYFCAIVYSNHWVFGGGTKLTVLG
notes: Heavy chain built as m63
One may read the Kd as the equilibrium constant for the complex coming apart. In general, koff refers to a measure of how fast the partners let go of each other. Usually kon stands for the rate constant with which the complex forms. Turning to B1, the Kd came out at 35.4 nM, the koff was found to be 0.000527 s⁻¹ and the kon stood at 14900 M⁻¹ s⁻¹.

B2: Mutation 1-20 (antibody, V domains shown)
VH: B1 VH with S28T, V34I, Q52Y, R59K, T99S, Q103G
VL: B1 VL with S26T, I92L, H97N
notes: Built as m8
Regarding B2, the Kd worked out at 7.74 nM, the off-rate constant (koff) came out at 0.000542 s⁻¹ and the kon is 70000 M⁻¹ s⁻¹.

B3: Mutation 1-15 (antibody, V domains shown)
VH: B1 VH with S28T, I31L, Q52N, R59K, T99S
VL: B1 VL with S26T, A29V, Q33N, N54Q, I92L, H97N
notes: Built as m8
Regarding B3, the Kd is 0.759 nM, the koff turned out to be 4.7e-05 s⁻¹ and the kon stood at 61900 M⁻¹ s⁻¹.

B4: Mutation 1-28 (antibody, V domains shown)
VH: B1 VH with S28T, I31L, V34L, Q52Y, I55L, R59K, T99S, Q103N
VL: B1 VL with S26T, I92L, H97Q
notes: Built as m8
Take B4: the Kd was 1.76 nM, the koff was 0.000158 s⁻¹ and the kon is 89600 M⁻¹ s⁻¹.

B5: Mutation 1-7 (antibody, V domains shown)
VH: B1 VH with S28T, V34L, I55L, R59K, T99S, Q103N
VL: B1 VL with S26T, A29V, Q33N, N54Q, I92L
notes: Built as m8
B5: the Kd is 2.77 nM, the koff was determined as 0.000176 s⁻¹ and the kon was 63600 M⁻¹ s⁻¹.

B6: Mutation 1-10 (antibody, V domains shown)
VH: B1 VH with S28T, I31L, V34L, I55L, R59K, T99S, Q103N
VL: B1 VL with S26T, A29V, I92L, H97Q
notes: Built as m8
In the case of B6, the Kd turned out to be 0.731 nM, the koff worked out at 4.12e-05 s⁻¹ and the kon was 56300 M⁻¹ s⁻¹.

B7: Mutation 1-23 (antibody, V domains shown)
VH: B1 VH with S28T, I31L, V34I, Q52Y, R59K, T99S, Q103G
VL: B1 VL with S26T, A29V, Q33N, N54Q, I92L
notes: Built as m8
B7: the Kd came to 8.49 nM, the koff turned out to be 0.000353 s⁻¹ and the kon turned out to be 41600 M⁻¹ s⁻¹.

B8: Mutation 1-27 (antibody, V domains shown)
VH: B1 VH with S28T, I31L, Q52Y, I55L, R59K, T99S
VL: B1 VL with S26T, A29V, Q33N, N54Q, I92L
notes: Built as m8
As to B8, the Kd was found to be 0.353 nM, the koff was determined as 7.31e-06 s⁻¹ and the kon came out at 20700 M⁻¹ s⁻¹.

B9: Mutation 1-31 (antibody, V domains shown)
VH: B1 VH with S28T, V34L, Q52N, R59K, T99S, Q103N
VL: B1 VL with S26T, N54Q, I92L, H97N
notes: Built as m8
Consider B9, for which the Kd was 9.41 nM, the off-rate (koff) was 0.00034 s⁻¹ and the kon turned out to be 36100 M⁻¹ s⁻¹.

B10: Mutation 1-13 (antibody, V domains shown)
VH: B1 VH with S28T, V34L, Q52N, R59K, T99S, Q103N
VL: B1 VL with S26T, Q33N, N54Q, I92L, H97N
notes: Built as m8
As to B10, the Kd is 0.139 nM, the koff amounted to 3.79e-06 s⁻¹ and the kon came out at 27300 M⁻¹ s⁻¹.

B11: Mutation 1-34 (antibody, V domains shown)
VH: B1 VH with S28T, I31L, V34L, R59K, T99S, Q103N
VL: B1 VL with S26T, Q33N, I92L
notes: Built as m8
On to B11, for which the Kd was 3.41 nM, the koff is 0.000198 s⁻¹ and the kon is 58000 M⁻¹ s⁻¹.

B12: Mutation 1-25 (antibody, V domains shown)
VH: B1 VH with S28T, V34L, Q52Y, I55L, R59K, T99S, Q103N
VL: B1 VL with S26T, Q33N, N54Q, I92L
notes: Built as m8
With B12, the Kd was 6.6 nM, the koff was 0.00053 s⁻¹ and the kon was 80300 M⁻¹ s⁻¹.

B13: Mutation 1-24 (antibody, V domains shown)
VH: B1 VH with S28T, Q52Y, I55L, R59K, T99S
VL: B1 VL with S26T, I92L, H97N
notes: Built as m8
For the molecule B13, the Kd amounted to 0.63 nM, the koff came out at 3.62e-05 s⁻¹ and the kon turned out to be 57400 M⁻¹ s⁻¹.

B14: Mutation 1-35 (antibody, V domains shown)
VH: B1 VH with S28T, I31L, V34I, I55L, R59K, T99S, Q103G
VL: B1 VL with S26T, Q33N, N54Q, I92L, H97Q
notes: Built as m8
As for B14, the Kd turned out to be 0.832 nM, the koff was 4.31e-05 s⁻¹ and the kon was 51800 M⁻¹ s⁻¹.

B15: Mutation 1-6 (antibody, V domains shown)
VH: B1 VH with S28T, I55L, R59K, T99S
VL: B1 VL with S26T, A29V, I92L, H97N
notes: Built as m8
For the molecule B15, the equilibrium dissociation constant (Kd) was determined as 0.697 nM, the koff was determined as 5.34e-05 s⁻¹ and the kon turned out to be 76600 M⁻¹ s⁻¹.

B16: Mutation 1-32 (antibody, V domains shown)
VH: B1 VH with S28T, V34I, Q52N, I55L, R59K, T99S, Q103G
VL: B1 VL with S26T, Q33N, I92L
notes: Built as m8
On to B16, for which the Kd stood at 0.765 nM, the koff was found to be 5.3e-05 s⁻¹ and the kon is 69300 M⁻¹ s⁻¹.

B17: Mutation 1-33 (antibody, V domains shown)
VH: B1 VH with S28T, I31L, Q52Y, R59K, T99S, Q103G
VL: B1 VL with S26T, N54Q, I92L, H97N
notes: Built as m8
For B17, the Kd worked out at 7.95 nM, the koff was determined as 0.000331 s⁻¹ and the on-rate (kon) stood at 41700 M⁻¹ s⁻¹.

B18: Mutation 1-4 (antibody, V domains shown)
VH: B1 VH with S28T, I31L, V34L, R59K, T99S, Q103N
VL: B1 VL with S26T, I92L, H97N
notes: Built as m8
With B18, the Kd was determined as 5.03 nM, the koff was 0.000232 s⁻¹ and the kon amounted to 46200 M⁻¹ s⁻¹.

B19: Mutation 1-21 (antibody, V domains shown)
VH: B1 VH with S28T, I31L, Q52Y, R59K, T99S
VL: B1 VL with S26T, Q33N, N54Q, I92L, H97Q
notes: Built as m8
For B19, the Kd is 1.47 nM, the koff came out at 5.71e-05 s⁻¹ and the kon came to 38800 M⁻¹ s⁻¹.

B20: Mutation 1-3 (antibody, V domains shown)
VH: B1 VH with S28T, I31L, R59K, T99S
VL: B1 VL with S26T, A29V, Q33N, N54Q, I92L, H97Q
notes: Built as m8
As for B20, the Kd was 0.399 nM, the koff turned out to be 9.54e-06 s⁻¹ and the kon was found to be 23900 M⁻¹ s⁻¹.

B21: Mutation 1-8 (antibody, V domains shown)
VH: B1 VH with S28T, V34I, I55L, R59K, T99S, Q103G
VL: B1 VL with S26T, I92L, H97Q
notes: Built as m8
With B21, the Kd was 9.31 nM, the koff is 0.000244 s⁻¹ and the kon is 26200 M⁻¹ s⁻¹.

B22: Mutation 1-22 (antibody, V domains shown)
VH: B1 VH with S28T, I31L, V34L, Q52Y, R59K, T99S, Q103N
VL: B1 VL with S26T, A29V, I92L, H97N
notes: Built as m8
With B22, the Kd came out at 0.106 nM, the koff is 2.86e-06 s⁻¹ and the on-rate constant (kon) is 27000 M⁻¹ s⁻¹.

B23: Mutation 1-14 (antibody, V domains shown)
VH: B1 VH with S28T, V34I, Q52N, R59K, T99S, Q103G
VL: B1 VL with S26T, A29V, I92L
notes: Built as m8
Take B23: the Kd turned out to be 0.866 nM, the koff was 2.21e-05 s⁻¹ and the kon is 25500 M⁻¹ s⁻¹.

B24: Mutation 1-1 (antibody, V domains shown)
VH: B1 VH with S28T, V34L, R59K, T99S, Q103N
VL: B1 VL with S26T, Q33N, N54Q, I92L, H97Q
notes: built as m3
On to B24, for which the Kd was found to be 8.27 nM, the koff came to 0.000712 s⁻¹ and the association rate constant (kon) is 86100 M⁻¹ s⁻¹.

B25: Mutation 1-9 (antibody, V domains shown)
VH: B1 VH with S28T, I31L, I55L, R59K, T99S
VL: B1 VL with S26T, Q33N, N54Q, I92L
notes: Built as m8
B25: the Kd was found to be 5.43 nM, the koff was found to be 0.00024 s⁻¹ and the kon turned out to be 44200 M⁻¹ s⁻¹.

B26: Mutation 1-29 (antibody, V domains shown)
VH: B1 VH with S28T, I31L, V34I, R59K, T99S, Q103G
VL: B1 VL with S26T, N54Q, I92L, H97N
notes: Built as m8
For the molecule B26, the Kd is 3.8 nM, the koff turned out to be 0.000207 s⁻¹ and the kon turned out to be 54500 M⁻¹ s⁻¹.

B27: Mutation 1-2 (antibody, V domains shown)
VH: B1 VH with S28T, V34I, R59K, T99S, Q103G
VL: B1 VL with S26T, A29V, I92L, H97N
notes: Built as m8
For the molecule B27, the Kd came out at 7.64 nM, the koff is 0.00061 s⁻¹ and the kon worked out at 79900 M⁻¹ s⁻¹.

B28: Mutation 1-26 (antibody, V domains shown)
VH: B1 VH with S28T, V34I, Q52Y, I55L, R59K, T99S, Q103G
VL: B1 VL with S26T, A29V, I92L, H97Q
notes: Built as m8
B28: the Kd is 0.465 nM, the koff was 1.85e-05 s⁻¹ and the kon was found to be 39800 M⁻¹ s⁻¹.

B29: Mutation 1-5 (antibody, V domains shown)
VH: B1 VH with S28T, I31L, V34I, R59K, T99S, Q103G
VL: B1 VL with S26T, Q33N, N54Q, I92L
notes: Built as m8
For the molecule B29, the Kd came to 1.2 nM, the koff was found to be 4.4e-05 s⁻¹ and the kon was 36800 M⁻¹ s⁻¹.

B30: Mutation 1-16 (antibody, V domains shown)
VH: B1 VH with S28T, I31L, V34L, Q52N, I55L, R59K, T99S, Q103N
VL: B1 VL with S26T, I92L
notes: Built as m8
With B30, the Kd was 6.48 nM, the koff was determined as 0.000222 s⁻¹ and the kon amounted to 34300 M⁻¹ s⁻¹.

B31: Mutation 1-18 (antibody, V domains shown)
VH: B1 VH with S28T, Q52N, I55L, R59K, T99S
VL: B1 VL with S26T, A29V, I92L
notes: Built as m8
On to B31, for which the Kd turned out to be 9.31 nM, the koff amounted to 0.000586 s⁻¹ and the kon amounted to 63000 M⁻¹ s⁻¹.

B32: Mutation 1-30 (antibody, V domains shown)
VH: B1 VH with S28T, I55L, R59K, T99S
VL: B1 VL with S26T, I92L, H97Q
notes: Built as m8
For B32, the Kd turned out to be 3.71 nM, the koff is 0.00022 s⁻¹ and the kon is 59500 M⁻¹ s⁻¹.
